# Measurements taken from patent US20210292393A1 (published 2021).
# B1: antibody 296 (antibody, V domains shown)
# VH: EVQLVESGGGLVQPGGSLRLSCAGSGFTLSNYWMTWVRQAPGKGLEWVANINQDASRKYYGDSVKGRFSVSRDNAKNSLYLQMNSLTAEDTGFYYCVREELPSTPGSTWGQGTLVTVSS
# VL: QSALTQPASVSGSPGQSITISCTGTSSDIGGYNHVSWYQQHPGKAPKLMIYGVSNRPSGVSDRFSGSKSDNTASLTISGLQAEDEADYYCSSPTSRGNKVFGTGTKVTVL
# B2: antibody 377 (antibody, V domains shown)
# VH: EVQLVESGGGLVKPGGSLRLSCATSGFTFRTYSMNWVRQAPGKGLEWVSSITTSRNYIYYADSVRGRFTISGDNANNSLYLQMNSLRAEDTAVYYCARVRFVRDTRKPYYFDFWGQGTLVTVSS
# VL: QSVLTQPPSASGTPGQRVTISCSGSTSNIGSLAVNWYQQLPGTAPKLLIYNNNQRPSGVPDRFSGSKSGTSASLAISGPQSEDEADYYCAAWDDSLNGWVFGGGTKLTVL
# B3: antibody 290 (antibody, V domains shown)
# VH: QVHLVQSGAEVKKPGASVKVSCAASGYTFNNYGVSWVRQAPGQGLEWMGWISASNGNTKYAQNLQGRVTMTTDTSTSTAYMELRSLRSDDTAVYYCARDLVGPTAPNYYYGMDVWGQGTAVTVSS
# VL: QSVLTQPPSVSGAPGQRVTISCTGSSSSIGAGYDVHWYQQLPGTAPKLLIYANSNRPSGVPDRLSGSKSGTSASLAITGLQAEDEADYYCQSYDSSLSGYVFGTGTKVTVL
# B4: antibody 443 (antibody, V domains shown)
# VH: QMRLEESGPGLVKPSETLSLTCTVAGGSITSSDYFWGWLRQSPGKGLEWIASTYHGGSIQYHPALKSRVTISVDASKNQISLRLSSVTAADTAVYYCARDRGDDGPMGTYYFDHWGQGALVTVSS
# VL: QSVLTQPPSVSGAPGQSVTISCAGSSSNIGAGHDVHWYQQIPGTAPKLLICGNTNRPSGVPERFSGSRSGTSASLAITGLQAEDEAVYYCQSYDPSHVFFGTGTKLTVL
# B5: antibody 432 (antibody, V domains shown)
# VH: QVQLQESGPGLVKPSQTLSLTCTVSGGSISSGGYYWNWIRQHPGKGLEWIGYIYDSGSTYYNPSLKSRLTLSIDTSQNQFSLRRTSVTAADTAVYYCARGRQYDYDRTGLQYYFDYWGQGTLVTVSS
# VL: EIVLTQSPGTLSLSPGERATLSCRASQSFSSSYLAWYQQKPGQAPRLLIYGASSRATGIPDRFSGSGSGTDFTLTISRLEPEDFAVYYCQQYGTSSLTFGGGTKVEIK
# B6: antibody 341 (antibody, V domains shown)
# VH: QLQLQESGPGLVKPSETLSLTCTVSGGSISSSSYYWGWIRQPPGKGLEWIGSIYYSGSTYYNPSLKSRVTISVDTSKNQFSLKLSSVTAADTAVYYCARRPLRYFDWLTNFDYWGQGTLVTVSS
# VL: EIVLTQSPATLSLSPGERATLSCRASQSVSSYLAWYQQKPGQAPRLLIYDASNRATGIPARFSGSGSGTDFTLTISSLEPEDFAVYYCQQRSNWPITFGQGTRLEIK
# B7: antibody 380 (antibody, V domains shown)
# VH: QVQLVESGGGVVQPGRSLRLSCAASGFTLKNYGMHWVRQAPGKGLEWVIVLSFDGSDEYKADSVRGRFTVSRDNSKNTLFLQMNSLRPDDTAVYYCAREQPTMIEGGRGPFDIWGQGTMVTVSS
# VL: EVVMTQSPATLSVSPGDRATLSCRASQGVNSNLAWYQQKPGQAPRLLIYAASTRATGIPARFSASGSGTHFTLTISSLQSEDFAVYYCLQYNNWPPWTFGQGTKLEIK
# B8: antibody 434 (antibody, V domains shown)
# VH: QVQLVQSGAEVKKPGASVQVSCKASGYTFSDYYIFWVRQAPGQGLEWMGCINPKSGGAIYAQRFQGRVTMTRDTSFNTAYMEMNRLGSDDTAVYYCVTRGPPDIAASGFAWHLDVWGQGTTVTVSS
# VL: DIVMTQSPLSLPVTPGEPASISCRSSQSLLSSNGYNYLEWYLQKPGQSPQLLMYLGSNRASGVPDRFSGSGSGTDFTLKINRVEAEDVGVYYCMQALQTPLTFGGGTKVEIK
# B9: antibody 585 (antibody, V domains shown)
# VH: QVQLVESGGGVVQPGRSLRLSCAASGFTFATYAMHWVRQAPGKGLEWVALISHDGSNKHYADSVKGRFTISRDNSKKTLYLQMNSLRAEGTAIYYCARESLEAAAPPFDYWGQGTLVTVSS
# VL: SYELTQPPSVSVSPGQTATIICSGDKLGEKYASWYQQKPGQSPALVIYQDRKRPSGIPERFSGSNSGNTATLTISGTQAMDEADYYCQAWDSSNSVVFGGGTKLTVP
# B10: antibody 450 (antibody, V domains shown)
# VH: EVQLVESGGGLVQPGGSLRLSCAASEFTFSSYWMSWVRQAPGKGLEWVANIKQDGSEKYYVDSVKGRFTISRDNAKNSLYLQMNSLRAEDTAVYYCARVGEYSGYDLFFDYWGQGTLVTVSS
# VL: NFMLTQPHSVSESPGKTVTISYTGSSGSIASNYVQWYQQRPGSAPTTVIYEDNQRPSGVPDRFSGSIDSSSNSASLTISGLKTEDEADYYCQSYDSSNQGVFGGGTKLTVL
# Experiments:
# [1] = molecular target: T1, SARS-CoV-2 full length spike protein, V367F mutant (SARS-CoV-2, UniProt P0DTC2 14-1273); experiment: flow cytometry, CHO cells expressing full-length spike V367F
# T1 construct: also called SARS-CoV-2 V367F mutant
# [2] = molecular target: T2, SARS-CoV-2 full length spike protein, D614G mutant (SARS-CoV-2, UniProt P0DTC2 14-1273); experiment: flow cytometry, CHO cells expressing full-length spike D614G (printed D641G)
# T2 construct: also called SARS-CoV-2 D641G mutant
# [3] = molecular target: T3, SARS-CoV-2 full length spike protein, V483A mutant (SARS-CoV-2, UniProt P0DTC2 14-1273)
# [4] = molecular target: SARS-CoV-2 full length spike protein, D614G mutant, expressed on CHO cells (SARS-CoV-2, UniProt P0DTC2 14-1273); experiment: flow cytometry on CHO cells expressing spike D614G
# [5] = molecular target: T4, SARS-CoV-2 full length spike protein, V367F mutant, expressed on CHO cells (SARS-CoV-2, UniProt P0DTC2 14-1273); experiment: flow cytometry on CHO cells expressing spike V367F
# T4 construct: also called SARS-CoV-2 V367F mutant
# [6] = molecular target: T5, SARS-CoV-2 full length spike protein, V483A mutant, expressed on CHO cells (SARS-CoV-2, UniProt P0DTC2 14-1273)
# [7] = molecular target: T5, SARS-CoV-2 full length spike protein, …; experiment: flow cytometry on CHO cells expressing spike V483A
# [8] = molecular target: T3, SARS-CoV-2 full length spike protein, …; experiment: flow cytometry, CHO cells expressing full-length spike V483A
# [9] = molecular target: T6, SARS-CoV-2 full length spike protein, V483A mutant (SARS-CoV-2, UniProt P0DTC2 14-1273); experiment: as above; remark: listed apart in the source
# T6 construct: also called SARS-CoV-2 V483A mutant
# [10] = molecular target: T7, SARS-CoV-2 full length spike protein, V367F mutant (SARS-CoV-2, UniProt P0DTC2 14-1273); experiment: flow cytometry, CHO cells expressing full-length spike V367F; remark: listed apart in the source
# T7 construct: also called SARS-CoV-2 V367F mutant
# [11] = molecular target: T8, SARS-CoV-2 full length spike protein, V483A mutant, expressed on the surface of CHO cells (SARS-CoV-2, UniProt P0DTC2 14-1273)
# [12] = molecular target: T8, SARS-CoV-2 full length spike protein, …; experiment: flow cytometry, CHO cells expressing full-length spike V483A
# [13] = molecular target: SARS-CoV-2 full length spike protein, D614G mutant (SARS-CoV-2, UniProt P0DTC2 14-1273)
# [14] = molecular target: SARS-CoV-2 full length spike protein, V367F mutant (SARS-CoV-2, UniProt P0DTC2 14-1273)
# [15] = molecular target: SARS-CoV-2 full length spike protein, D614G mutant (SARS-CoV-2, UniProt P0DTC2 14-1273); experiment: flow cytometry, CHO cells expressing full-length spike D614G
# [16] = molecular target: T6, SARS-CoV-2 full length spike protein, …; remark: listed apart in the source
binder,measurement,setting,value
B1,binding result,[1],no binding
same,binding result,[2],no binding
same,"median fluorescence intensity, fold over isotype control",[3],1.27 fold over isotype
B2,binding result,[4],no binding
same,binding result,[5],no binding
same,median fluorescence fold over isotype control,[6],1.09 fold over isotype
same,binding result,[7],no binding
B3,binding result,[8],no binding
B4,binding result,[9],no binding
B5,binding result,[10],no binding
same,binding result,[9],no binding
B6,"median fluorescence intensity, fold over isotype control",[11],1.01 fold over isotype
same,binding result,[12],no binding
B7,binding result,[7],no binding
B8,binding result,[9],no binding
B9,"median fluorescence intensity, fold over isotype control",[13],7.49 fold over isotype
same,"median fluorescence intensity, fold over isotype control",[14],33 fold over isotype
B10,binding result,[10],no binding
same,binding result,[15],no binding
same,median fluorescence fold over isotype control,[16],1.27 fold over isotype
same,binding result,[9],no binding
